Data reported in patent publication US20240189408A1, “COMPOSITIONS AND METHODS FOR REDUCING METHANE EMISSIONS IN RUMINANT POPULATIONS” (Arkea Bio Corp., priority 2022, published 2024).

B1: ARK005: mRNA: SP + WP_011033493.1 (Methanosarcina mazei) + TM/C; SEQ ID NO: 16680 (nucleic acid)
chain: ATGTTCGTGTTCCTCGTGCTCCTGCCCCTCGTCTCCAGCCAGTGCGTGTACCTCATGACGGTGGTGCTCGGACACCCATTCCCGCTGACACCCTGGTACATCTGGCTGGGCTTCATCGCAGGACTGATCGCCATCGTCATGGTCACCATAATGCTCTGTTGCATGACCTCCTGCTGTAGCTGCCTGAAAGGCTGTTGCAGCTGCGGGAGCTGCTGCAAATTCGACGAAGACGATAGCGAACCTGTGCTCAAAGGGGTGAAGTTGCATTACACATAGTGA
modifications: listed as DNA
B2: ARK002: mRNA: SP + WP_012956721.1 (Methanobrevibacter ruminantium) + TM/C; SEQ ID NO: 16677 (nucleic acid)
chain: ATGTTCGTGTTCCTCGTGCTCCTGCCCCTCGTCTCCAGCCAGTGCGTGTACCTCATGACACTCCCCCTGGACGGACTCGGGCACCCCTTCCCCCTGCCACCCTGGTACATCTGGCTGGGCTTCATCGCAGGACTGATCGCCATCGTCATGGTCACCATAATGCTCTGTTGCATGACCTCCTGCTGTAGCTGCCTGAAAGGCTGTTGCAGCTGCGGGAGCTGCTGCAAATTCGACGAAGACGATAGCGAACCTGTGCTCAAAGGGGTGAAGTTGCATTACACATAGTGA
modifications: listed as DNA
B3: ARK001: mRNA: SP + WP_004031278.1 (Methanobacterium formicicum) + TM/C; SEQ ID NO: 16676 (nucleic acid)
chain: ATGTTCGTGTTCCTCGTGCTCCTGCCCCTCGTCTCCAGCCAGTGCGTGTACCTCATGACACTGAGCCTGCCAGGGTTCGCACATCCCTTCGCACTCCCCCCCTGGTACATCTGGCTGGGCTTCATCGCAGGACTGATCGCCATCGTCATGGTCACCATAATGCTCTGTTGCATGACCTCCTGCTGTAGCTGCCTGAAAGGCTGTTGCAGCTGCGGGAGCTGCTGCAAATTCGACGAAGACGATAGCGAACCTGTGCTCAAAGGGGTGAAGTTGCATTACACATAGTGA
modifications: listed as DNA
B4: ARK003: mRNA: SP + WP_019264904.1 (Methanobrevibacter smithii) + TM/C; SEQ ID NO: 16678 (nucleic acid)
chain: ATGTTCGTGTTCCTCGTGCTCCTGCCCCTCGTCTCCAGCCAGTGCGTGTACCTCATGACCATACCACTGAACGGCACCCCACTCCACGCCTTCCCACTGCCACCCTGGTACATCTGGCTGGGCTTCATCGCAGGACTGATCGCCATCGTCATGGTCACCATAATGCTCTGTTGCATGACCTCCTGCTGTAGCTGCCTGAAAGGCTGTTGCAGCTGCGGGAGCTGCTGCAAATTCGACGAAGACGATAGCGAACCTGTGCTCAAAGGGGTGAAGTTGCATTACACATAGTGA
modifications: listed as DNA
B5: ARK004: mRNA: SP + WP_016359091.1 (Methanobrevibacter sp. AbM4) + TM/C; SEQ ID NO: 16679 (nucleic acid)
chain: ATGTTCGTGTTCCTCGTGCTCCTGCCCCTCGTCTCCAGCCAGTGCGTGTACCTGATGATAATCCCAATCAACGGGAGTGCACTCCACATCTTCCCCCTCCCGCCCTGGTACATCTGGCTGGGCTTCATCGCAGGACTGATCGCCATCGTCATGGTCACCATAATGCTCTGTTGCATGACCTCCTGCTGTAGCTGCCTGAAAGGCTGTTGCAGCTGCGGGAGCTGCTGCAAATTCGACGAAGACGATAGCGAACCTGTGCTCAAAGGGGTGAAGTTGCATTACACATAGTGA
modifications: listed as DNA
B6: ARK012: mRNA: SP + WP_012956721.1 + STOP; SEQ ID NO: 16686 (nucleic acid)
chain: ATGTTCGTGTTCCTCGTGCTCCTGCCCCTCGTCTCCAGCCAGTGCGTGGGGTCCATAGGGGCTGCTTCTATGGAGTTCTGTTTTGATGTTTTCAAGGAACTGAAGGTTCACCATGCTAACGAGAACATCTTTTACTGTCCAATAGCCATCATGAGTGCGCTTGCTATGGTTTATTTGGGTGCAAAAGATTCTACTCGCACTCAGATTAATAAGGTCGTTAGATTCGACAAGCTTCCAGGGTTTGGAGACAGTATTGAGGCCCAATGTGGAACGTCAGTCAACGTCCATTCTTCTCTGCGGGACATTCTCAACCAAATAACGAAGCCAAACGACGTGTATTCCTTCTCACTCGCGTCACGGCTGTATGCTGAAGAAAGGTATCCTATCTTGCCAGAATATCTCCAGTGCGTCAAGGAGTTGTATCGAGGCGGACTGGAACCGATCAACTTTCAGACTGCAGCCGACCAGGCCCGCGAACTGATCAACAGCTGGGTCGAGTCTCAGACCAATGGGATCATACGCAATGTGTTGCAACCGAGTAGTGTCGACTCTCAGACGGCTATGGTCTTGGTGAACGCTATAGTCTTCAAAGGTCTGTGGGAGAAGACCTTCAAGGATGAAGACACACAAGCGATGCCATTCAGAGTCACCGAACAAGAAAGCAAACCCGTCCAAATGATGTACCAAATTGGGCTTTTTCGGGTGGCCTCTATGGCCTCTGAGAAAATGAAAATATTGGAACTGCCCTTCGCCAGCGGCACAATGAGTATGTTGGTCCTTCTTCCAGATGAAGTCTCAGGTCTCGAACAGCTTGAGTCTATCATTAACTTTGAGAAACTCACTGAATGGACTTCTTCCAATGTGATGGAAGAACGAAAAATCAAAGTCTACCTGCCCCGAATGAAGATGGAAGAGAAATATAATTTGACATCAGTTCTGATGGCCATGGGAATCACAGACGTGTTTTCATCCTCTGCGAATCTGTCTGGCATATCTTCCGCAGAATCTCTCAAGATCAGTCAAGCCGTCCACGCGGCCCATGCTGAGATAAATGAGGCGGGCAGAGAGGTGGTGGGGTCCGCCGAAGCTGGAGTCGACGCAGCTTCTGTCAGTGAAGAATTTAGGGCCGATCATCCTTTCCTGTTCTGCATAAAGCACATAGCTACGAACGCTGTGCTTTTCTTTGGCAGATGCGTTTCTCCACCCTGGTACATCTGGCTGGGCTTCATCGCAGGACTGATCGCCATCGTCATGGTCACCATAATGCTCTGTTGCATGACCTCCTGCTGTAGCTGCCTGAAAGGCTGTTGCAGCTGCGGGAGCTGCTGCAAATTCGACGAAGACGATAGCGAACCTGTGCTCAAAGGGGTGAAGTTGCATTACACATAGTGA
modifications: listed as DNA
B7: ARK013: mRNA: SP + mru0143 + STOP; SEQ ID NO: 16687 (nucleic acid)
chain: ATGTTCGTGTTCCTCGTGCTCCTGCCCCTCGTCTCCAGCCAGTGCGTGTACCTCATGACACTCCCCCTGGACGGACTCGGGCACCCCTTCCCCCTGCCATGA
modifications: listed as DNA, chemistry not fully specified

Experiments:
[1] = LNP encapsulation efficiency, RiboGreen assay; format: physicochemical; details: mRNA LNPs of Table 18
Procedure: (§1) To prepare lipid nanoparticles (LNPs), the mRNA stocks were thawed on ice. Nucleic acid concentrations were validated by absorbance at 260 nm using a NanoDrop. The mRNAs were then diluted to a final concentration of 0.35 mg/mL mRNA in Precision Nanosystem's dilution buffer. 10 mL of the dilute mRNAs were loaded into separate Luer lock syringes and all bubbles were removed by gentle tapping. A NanoAssemblr Ignite NxGen Cartridge was loaded into the cartridge slot of the Ignite instrument (FIG. 8A, 801) and one mRNA syringe was attached to the aqueous inlet of the cartridge. 3.3 mL of Genvoy-ILM reagent was loaded into a separate Luer lock syringes and all bubbles were removed by gentle tapping. The Genvoy-ILM syringe was then attached to the organic inlet of the cartridge. LNPs were then generated and collected into a 15 mL conical tube. The process was repeated for the remaining two mRNAs and for a buffer only LNP control (empty). Immediately after LNPs were generated, the samples were loaded into 10K dialysis cartridges, submerged into 1×DPBS (Ca^2+ and Mg^2+-free) to reduce the ethanol concentration to <0.5%. After dialysis the LNPs were recovered from the dialysis cartridges and sterile filtered at 0.2 um. Size and polydispersity (FIG. 8A, 802) were measured using a Malvern Panalytical DLS by diluting 40 uL of LNPs into 360 uL of 1×DPBS. […] Encapsulation efficiency was measured using a RiboGreen assay following Precision Nanosystems recommended protocol using a BioTek Synergy H1 Plate Reader. The resultant encapsulation efficiencies are shown in Table 14, with an average of ˜85%.
(§2) To prepare lipid nanoparticles (LNPs), the mRNA stocks were thawed on ice. Nucleic acid concentrations were validated by absorbance at 260 nm using a NanoDrop. The mRNAs were then diluted to a final concentration of 0.35 mg/mL mRNA in Precision Nanosystem's dilution buffer. 10 mL of the dilute mRNAs were loaded into separate Luer lock syringes and all bubbles were removed by gentle tapping. A NanoAssemblr Ignite NxGen Cartridge was loaded into the cartridge slot of the Ignite instrument and one mRNA syringe was attached to the aqueous inlet of the cartridge. 3.3 mL of Genvoy-ILM reagent was loaded into a separate Luer lock syringes and all bubbles were removed by gentle tapping. The Genvoy-LM syringe was then attached to the organic inlet of the cartridge. LNPs were then generated and collected into a 15 mL conical tube. The process was repeated for the remaining mRNAs and for a buffer only LNP control (empty). Immediately after LNPs were generated, the samples were loaded into 10K dialysis cartridges, submerged into Ix DPBS (Ca^2+ and Mg^2+-free) to reduce the ethanol concentration to <0.5%. After dialysis the LNPs were recovered from the dialysis cartridges and sterile filtered at 0.2 um. Size and polydispersity (FIG. 12 and FIG. 13) were measured using a Malvern Panalytical DLS by diluting 40 uL of LNPs into 360 uL of 1×DPBS. […] Encapsulation efficiency was measured using a RiboGreen assay following Precision Nanosystems recommended protocol using a BioTek Synergy H1 Plate Reader. The resultant encapsulation efficiencies are shown in Table 18, with an average of ˜60%.
(§3) To prepare lipid nanoparticles (LNPs), the mRNA stocks are thawed on ice. Nucleic acid concentrations are validated by absorbance at 260 nm using a NanoDrop. The mRNAs are then diluted to a final concentration of 0.35 mg/mL mRNA in Precision Nanosystem's dilution buffer. 10 mL of the dilute mRNAs are loaded into separate Luer lock syringes and all bubbles are removed by gentle tapping. A NanoAssemblr Ignite NxGen Cartridge is loaded into the cartridge slot of the Ignite instrument and one mRNA syringe is attached to the aqueous inlet of the cartridge. 3.3 mL of Genvoy-ILM reagent is loaded into a separate Luer lock syringes and all bubbles are removed by gentle tapping. The Genvoy-ILM syringe is then attached to the organic inlet of the cartridge. […]

[2] = LNP size and polydispersity by DLS (Malvern Panalytical); format: physicochemical; details: mRNA LNPs of Table 18; for PDI: LNP polydispersity; for Z-avg.: LNP size
Procedure: as §1, §2, §3

Molecule | Encapsulation efficiency [1] [%] | PDI [2] | Z-avg. [2] [nm·days]
B1 | 56 | 0.064 | 78.82
B2 | 51 | 0.108 | 78.82
B3 | 51 | 0.086 | 78.82
B4 | 40 | 0.118 | 78.82
B5 | 51 | 0.108 | 78.82
B6 | 49 | 0.100 | 78.82
B7 | 60 | 0.1841 | 78.82
